In US20250179210A1, “ANTI-CEACAM5 ANTIBODIES AND CONJUGATES AND USES THEREOF” (Merck Patent GmbH, priority 2022, published 2025):

B1: Fab of mAb1: Fab format of antibody mAb1 (antibody, V domains shown)
VH: EVQLQESGPGLVKPSQTLSLTCTVSDGSVSRGGYYLTWIRQHPGKGLEWIGYIYYSGSTYFNPSLRSRVTMSVDTSKNQFSLKLSSVTAADTAVYYCARGIAVAPFDYWGQGTLVTVSS
VL: EIVLTQSPATLSVSPGERATLSCRTSQSVRSNLAWYQQKPGQAPRLLIYAASTRATGIPARFSGSGSGTEFTLTISSLQSEDFAVYYCQQYTNWPFTFGPGTKVDIK
B2: rb8G4 (antibody)
heavy: EVQLQESGPGLVKPSQTLSLTCTVSDGSVSRGGYYLTWIRQHPGKGLEWIGYIYYSGSTYFNPSLRSRVTMSVDTSKNQFSLKLSSVTAADTAVYYCARGIAVAPFDYWGQGTLVTVSSQPKAPSVFPLAPCCGDTPSSTVTLGCLVKGYLPEPVTVTWNSGTLTNGVRTFPSVRQSSGLYSLSSVVSVTSSSQPVTCNVAHPATNTKVDKTVAPSTCSKPTCPPPELLGGPSVFIFPPKPKDTLMISRTPEVTCVVVDVSEDDPEVQFTWYINNEQVRTARPPLREQQFNSTIRVVSTLPIAHEDWLRGKEFKCKVHNKALPAPIEKTISKARGQPLEPKVYTMGPPREELSSRSVSLTCMINGFYPSDISVEWEKNGKAEDNYKTTPAVLDSDGSYFLYSKLSVPTSEWQRGDVFTCSVMHEALHNHYTQKSISRSPGK
light: EIVLTQSPATLSVSPGERATLSCRTSQSVRSNLAWYQQKPGQAPRLLIYAASTRATGIPARFSGSGSGTEFTLTISSLQSEDFAVYYCQQYTNWPFTFGPGTKVDIKRDPVAPSVLLFPPSKEELTTGTATIVCVANKFYPSDITVTWKVDGTTQQSGIENSKTPQSPEDNTYSLSSTLSLTSAQYNSHSVYTCEVVQGSASPIVQSFNRGDC

Key:
[1] = test system: other human CEACAM family members (huCEACAM6, huCEACAM1, huCEACAM3, huCEACAM7, huCEACAM8, huPSG1); assay: Selectivity ELISA, different CEACAM proteins (Fab); type: binding; settings: even when using 1000 nM Fab
Source text: (§1) Selectivity determination for Fab of mAb1 to human CEACAM5 and other human CEACAM family members was done in ELISA assay. Proteins were coated on 96-well assay plates: huCEACAM5-His6 (R&D Systems #4128-CM), huCEACAM6-His6 (3934-CM R&D Systems and recombinant protein obtained from Syngene), huCEACAM1-His6 (2244-CM R&D Systems), huCEACAM3-His6 (C449 Novoprotein), huCEACAM7-His6 (C926 Novoprotein), huCEACAM8-His6 (C583 Novoprotein), huPSG1-His6 (CC66 Novoprotein), each protein was coating the plate at 12 nM concentration.

[2] = target: cynomolgus_monkey-CEACAM5; assay: Binding affinity on Octet Red (Fab format); settings: biotinylated Macaca fascicularis CEACAM5_ECD-His captured, KD=kd/ka
Source text: • To determine the binding affinity of soluble antibody analyte to captured target protein CEACAM5 (human or cynomolgus monkey Macaca fascicularis).

[3] = target: BSA (Bos taurus, UniProt P02769); assay: Selectivity ELISA, unrelated protein (Fab); type: binding; settings: all concentrations tested
Source text: as §1

[4] = target: T1, CEACAM5 in cancer cell line lysates (Homo sapiens, UniProt P06731); assay: Western blot on cancer cell line lysates; type: binding; settings: CEACAM5-positive and -negative cell line lysates
T1 construct: endogenous in cells; host or cells: CEACAM5-positive and -negative cancer cell lines (RIPA lysates)
T1 sequence (P06731 35-685): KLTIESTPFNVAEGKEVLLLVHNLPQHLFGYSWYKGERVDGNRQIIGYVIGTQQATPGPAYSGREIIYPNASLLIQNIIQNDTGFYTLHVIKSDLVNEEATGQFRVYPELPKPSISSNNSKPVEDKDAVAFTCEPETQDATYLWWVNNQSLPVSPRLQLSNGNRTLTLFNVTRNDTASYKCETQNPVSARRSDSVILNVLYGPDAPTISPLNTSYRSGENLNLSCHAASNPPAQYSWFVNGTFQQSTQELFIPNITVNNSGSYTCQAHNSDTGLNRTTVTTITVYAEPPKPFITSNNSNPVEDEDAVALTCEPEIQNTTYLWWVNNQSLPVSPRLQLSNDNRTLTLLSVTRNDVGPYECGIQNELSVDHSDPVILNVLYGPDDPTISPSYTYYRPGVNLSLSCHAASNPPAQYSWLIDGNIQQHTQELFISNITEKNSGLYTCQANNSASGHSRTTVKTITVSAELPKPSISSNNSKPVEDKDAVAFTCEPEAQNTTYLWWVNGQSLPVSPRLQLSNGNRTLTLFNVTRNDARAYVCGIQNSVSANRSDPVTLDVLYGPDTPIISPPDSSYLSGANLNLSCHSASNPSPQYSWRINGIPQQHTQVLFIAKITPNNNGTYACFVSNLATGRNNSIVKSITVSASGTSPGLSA
Protocol: Method used: Western blots were performed according to standard protocols (Sambrook, J. & Russell, D. W., 2001. Molecular Cloning: A Laboratory Manual, Volume 1, CSHL Press). For SDS-PAGE followed by membrane wet blotting, 15 μg total protein of RIPA cell lysates quantified by BCA kit (Thermo Scientific, #23227) were loaded per lane. Criterion XT 4-12% gels (Bio-Rad, #3450125) using MOPS running buffer (Bio-Rad #1610788) were used in a Criterion electrophoresis cell (Bio-Rad, #1656001). Transfer of proteins was confirmed by Ponceau staining. Membranes were washed before and in-between staining with 0.5 μg/mL to 1 μg/mL primary (mAb1 or rb8G4) and secondary antibodies (anti-human IgG, Jackson ImmunoResearch #109-035-098 or anti-rabbit IgG, CellSignaling #7074) was conducted. Stained membranes were visualized by ECL detection reagent using a Fusion FX imaging system (Vilber).

[5] = test system: MDA-MB-468; assay: Flow cytometry binding to cell lines; set-up: species or system human; settings: 10 μg/mL primary antibody
Protocol: (§2) Method used: 5E5 to 1E6 cells were used for flow cytometry analyses using a BD FACSCanto II (BD Biosciences) in 5 mL polystyrene tubes. Staining with 10 μg/mL primary antibodies (mAb1, rb8G4, mouse monoclonal Agilent Dako #M7072 clone #IL7) and respective fluorescently labeled secondary antibodies (donkey anti-human IgG Jackson-Dianova #709-116-149; donkey anti-mouse IgG Jackson ImmunoResearch #715-116-150, donkey anti-rabbit IgG Jackson-Dianova #711-116-152) were conducted in 50 μL 1% PBS/BSA for 20 to 30 min at 4° C. Between and after staining steps, cells were washed thrice with 1% PBS/BSA and resuspended in 500 μL 1% PBS/BSA (including 0.2 μg/mL DAPI for live cell gating) for flow cytometry analyses. For data evaluation, FlowJo software (BD Biosciences) was used.

[6] = test system: A549; assay: Flow cytometry binding to cell lines; set-up: species or system human; settings: 10 μg/mL primary antibody
Protocol: as §2

[7] = test system: NCI-H441; assay: Flow cytometry binding to cell lines; set-up: species or system human; settings: 10 μg/mL primary antibody
Protocol: as §2

[8] = test system: MKN-45; assay: Flow cytometry binding to cell lines; set-up: species or system human; settings: 10 μg/mL primary antibody
Protocol: as §2

[9] = target: T2, CEACAM-5 in FFPE cancer cell lines and human tumor tissues (Homo sapiens, UniProt P06731); assay: Immunohistochemistry on FFPE cell lines and human tissues
T2 construct: formaldehyde fixed paraffin embedded (FFPE) cancer cell line microarrays (CMAs) and human tumor tissues; from tissue; host or cells: FFPE cancer cell line microarrays and human tumor tissues
T2 sequence (P06731 35-676): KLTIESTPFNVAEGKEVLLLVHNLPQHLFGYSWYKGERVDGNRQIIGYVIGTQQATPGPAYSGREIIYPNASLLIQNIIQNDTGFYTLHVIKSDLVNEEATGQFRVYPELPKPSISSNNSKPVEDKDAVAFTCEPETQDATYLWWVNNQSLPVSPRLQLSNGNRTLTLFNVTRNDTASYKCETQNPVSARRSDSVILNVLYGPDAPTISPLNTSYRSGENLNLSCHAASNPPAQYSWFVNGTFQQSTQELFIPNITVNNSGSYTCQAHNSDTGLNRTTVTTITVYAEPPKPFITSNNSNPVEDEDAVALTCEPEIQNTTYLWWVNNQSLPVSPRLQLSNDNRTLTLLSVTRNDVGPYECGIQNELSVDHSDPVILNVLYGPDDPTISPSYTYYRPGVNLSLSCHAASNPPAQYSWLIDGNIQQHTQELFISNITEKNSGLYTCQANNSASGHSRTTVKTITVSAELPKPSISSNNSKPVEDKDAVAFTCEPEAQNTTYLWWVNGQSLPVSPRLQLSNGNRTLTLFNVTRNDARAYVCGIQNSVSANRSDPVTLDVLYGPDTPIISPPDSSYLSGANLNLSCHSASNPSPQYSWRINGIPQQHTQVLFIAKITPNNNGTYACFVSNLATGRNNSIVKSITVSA
Protocol: For the IHC staining with the anti-CEACAM-5 antibody rb8G4, sections of 4 μm from formaldehyde fixed paraffin embedded (FFPE) cancer cell line microarrays (CMAs) and human tumor tissues were mounted on charged slides (SuperFrost Ultra Plus, Thermo Fisher Scientific or TOMO, Matsunami). The staining procedure was performed using a Discovery XT (Roche Diagnostics) staining platform. Following deparaffinization, the sections were heated for epitope retrieval in Tris-EDTA buffer pH 8 (CC1, Roche Diagnostics). The sections were incubated with the primary monoclonal antibody rb8G4 diluted to 0.5 or 0.7 μg/ml in phosphate-buffered saline (PBS) or antibody diluent buffer (DCS). The clone DA1E (rabbit monoclonal IgG, NEB) served as isotype control antibody. The primary antibodies were followed by the HQ anti-rabbit IgG detection kit (Roche Diagnostics). […]
CMAs and the TMA with human organ tissue were stained and scanned with the NanoZoomer (Hamamatsu) with a resolution of 0.46 μm/pixel. […] The scans of the CMAs were analyzed with the image analysis software HALO (Indica Labs, USA). For the determination of the amount of antigen present, positive brown stained area was calculated as percent area of the viable tissue area. Staining (arbitrary units) is calculated as […]

Chain of BSA (P02769 25-607): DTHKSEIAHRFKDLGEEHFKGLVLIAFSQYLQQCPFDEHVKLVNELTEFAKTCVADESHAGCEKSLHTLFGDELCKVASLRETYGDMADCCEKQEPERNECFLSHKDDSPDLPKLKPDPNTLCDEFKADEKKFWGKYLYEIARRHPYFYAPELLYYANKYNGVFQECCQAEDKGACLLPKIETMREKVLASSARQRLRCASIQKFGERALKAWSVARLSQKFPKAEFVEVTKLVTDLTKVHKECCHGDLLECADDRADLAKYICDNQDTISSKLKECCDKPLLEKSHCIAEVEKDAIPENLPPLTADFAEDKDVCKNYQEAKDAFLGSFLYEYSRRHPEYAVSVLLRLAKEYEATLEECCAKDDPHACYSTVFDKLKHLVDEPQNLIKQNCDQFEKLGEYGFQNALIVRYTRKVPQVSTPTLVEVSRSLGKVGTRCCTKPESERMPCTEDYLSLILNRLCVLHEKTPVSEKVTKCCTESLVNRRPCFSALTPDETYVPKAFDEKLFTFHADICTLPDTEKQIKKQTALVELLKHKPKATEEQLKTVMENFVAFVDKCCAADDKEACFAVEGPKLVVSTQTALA
Chain of cynomolgus_monkey-CEACAM5 (as listed by the source): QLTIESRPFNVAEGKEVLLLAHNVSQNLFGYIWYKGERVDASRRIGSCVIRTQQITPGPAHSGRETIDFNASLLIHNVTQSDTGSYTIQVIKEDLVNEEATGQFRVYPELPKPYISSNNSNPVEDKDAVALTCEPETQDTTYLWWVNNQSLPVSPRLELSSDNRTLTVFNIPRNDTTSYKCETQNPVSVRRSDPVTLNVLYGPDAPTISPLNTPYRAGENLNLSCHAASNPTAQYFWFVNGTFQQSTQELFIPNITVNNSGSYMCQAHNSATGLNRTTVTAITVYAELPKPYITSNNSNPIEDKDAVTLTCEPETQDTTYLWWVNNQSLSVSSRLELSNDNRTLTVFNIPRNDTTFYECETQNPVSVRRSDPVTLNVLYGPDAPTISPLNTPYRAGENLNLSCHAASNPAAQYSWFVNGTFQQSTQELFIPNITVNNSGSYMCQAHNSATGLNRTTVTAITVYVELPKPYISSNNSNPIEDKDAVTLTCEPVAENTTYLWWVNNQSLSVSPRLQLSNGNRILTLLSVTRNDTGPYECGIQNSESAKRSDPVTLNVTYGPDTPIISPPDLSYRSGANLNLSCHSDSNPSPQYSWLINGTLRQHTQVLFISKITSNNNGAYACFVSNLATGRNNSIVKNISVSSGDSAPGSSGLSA

| Molecule | Binding to the other human CEACAM family members [1] | Kd [2] | Binding to unrelated protein (BSA) [3] | CEACAM5 detection in Western blot [4] | Quotient of MFI of antibody divided by MFI of secondary antibody only control [5] | Quotient of MFI of antibody divided by MFI of secondary antibody only control [6] | Quotient of MFI of antibody divided by MFI of secondary antibody only control [7] | Quotient of MFI of antibody divided by MFI of secondary antibody only control [8] | Pearson correlation coefficient r of IHC staining signal with CEACAM5 mRNA expression ([9]; 104 cancer cell lines, CCLE dataset) | IHC staining of human tumor tissue ([9]; colorectal, gastric, esophageal and non-small cell lung cancer) |
| --- | --- | --- | --- | --- | --- | --- | --- | --- | --- | --- |
| B1 | did not bind | 14.1 ± 2.53 nM | did not bind | – | – | – | – | – | – | – |
| B2 | – | – | – | specific to CEACAM5-positive cell lines | 1.0 | 1.1 | 3.2 | 36.2 | 0.88 | stained positive |
